Measurements taken from patent US20130071921A1 (Pfizer, published 2013).
Substitutions are numbered along the chain they refer to.

T1: Recombinant human Dkk-1 (R&D Systems cat no. 1096-DK/CF), 10xHis tag at the C terminal (human, UniProt O94907 32-266)
T1 construct: the actual N-terminus of the purified protein is marked in bold italic after residue 30, but the mark is an image lost in the text; also called rhuDkk-1; hDkk-1
T1 sequence: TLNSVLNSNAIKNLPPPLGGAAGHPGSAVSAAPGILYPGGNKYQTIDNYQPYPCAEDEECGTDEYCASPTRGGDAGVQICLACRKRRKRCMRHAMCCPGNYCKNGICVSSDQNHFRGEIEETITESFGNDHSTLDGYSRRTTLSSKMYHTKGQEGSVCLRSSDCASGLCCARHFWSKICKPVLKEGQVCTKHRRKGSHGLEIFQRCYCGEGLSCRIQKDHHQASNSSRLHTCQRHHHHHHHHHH

B1: L2.1B5 (Fab, V domains shown)
VH: EVQLVESGGGLVQPGGSLRLSCAASGFTFSSYAISWVRQAPGKGLEWVASVSGWGDTYYPDSVKGRFTISRDNAKNSLYLQMNSLRAEDTAVYYCATSLENYAFDYWGQGTTVTVSS
VL: EIVLTQSPATLSLSPGERATLSCRASESVDDFGISFMNWYQQKPGQAPRLLIYAASKQGSGIPARFSGSGSGTDFTLTISSLEPEDFAVYYCQQSKEVPPTFGGGTKVEIK
notes: tested as Fab (E. coli lysate, screening mode); human kappa CL and IgG2 CH1 not included here
B2: L2.1B11 (Fab, V domains shown)
VH: B1 VH with G55F, E100R
VL: B1 VL
notes: as for B1
B3: L2.P4.H3 (Fab, V domains shown)
VH: B1 VH with G55L
VL: B1 VL
notes: as for B1
B4: L2.1E5 (Fab, V domains shown)
VH: B1 VH with W54G, D56R
VL: B1 VL
notes: tested as Fab (E. coli lysate, screening mode); human kappa CL and IgG2 CH1 not included here; printed changes identical to clone 24
B5: 24m5 (Fab, V domains shown)
VH: B1 VH with W54G, D56R
VL: B1 VL with A55G, S56T
notes: as for B1
B6: L2.1F11 (Fab, V domains shown)
VH: B1 VH with G55L, E100Q
VL: B1 VL
notes: as for B1
B7: 24m4 (Fab, V domains shown)
VH: B1 VH with W54G, D56R
VL: B1 VL with M37L
notes: as for B1
B8: L2.4B10 (Fab, V domains shown)
VH: B1 VH with G55Y
VL: B1 VL
notes: as for B1
B9: L3.4E6 (Fab, V domains shown)
VH: B1 VH with W54G, G55L, D56G, E100R
VL: B1 VL with M37I, A55G, S95L
notes: as for B1
B10: L2.P4.E7 (Fab, V domains shown)
VH: B1 VH with E100R
VL: B1 VL
notes: as for B1
B11: L3.4H5 (Fab, V domains shown)
VH: B1 VH with T97S, E100D
VL: B1 VL with M37I, A55G, S95L
notes: as for B1
B12: L3.2H8 (Fab, V domains shown)
VH: B1 VH with G55L, D56G, E100Q
VL: B1 VL with M37I, A55G, S95L
notes: as for B1
B13: L3.1H3 (Fab, V domains shown)
VH: B1 VH with G55L, D56H
VL: B1 VL with M37I, A55G, S95L
notes: as for B1
B14: L2.P4.C10 (Fab, V domains shown)
VH: B1 VH with E100K
VL: B1 VL
notes: as for B1
B15: 2H10.33L (Fab, V domains shown)
VH: B1 VH with G55F, E100Q
VL: B1 VL with M37I, A55G, S95L
notes: as for B1
B16: L2.1G4 (Fab, V domains shown)
VH: B1 VH with G55F, Y106K
VL: B1 VL
notes: as for B1
B17: L2.1D12 (Fab, V domains shown)
VH: B1 VH with G55F, E100Q
VL: B1 VL
notes: as for B1
B18: L3.1D7 (Fab, V domains shown)
VH: B1 VH with G55F, D56R, E100R
VL: B1 VL with M37I, A55G, S95L
notes: as for B1
B19: 24m6 (Fab, V domains shown)
VH: B1 VH with W54G, D56R
VL: B1 VL with A55G
notes: as for B1
B20: L3.4E7 (Fab, V domains shown)
VH: B1 VH with E100Q
VL: B1 VL with M37I, A55G, S95L
notes: tested as Fab (E. coli lysate, screening mode); human kappa CL and IgG2 CH1 not included here; printed changes identical to L3.4H2
B21: 1F10.33L (Fab, V domains shown)
VH: B1 VH with W54G, G55F, D56Q, E100D
VL: B1 VL with M37I, A55G, S95L
notes: human kappa CL and IgG2 CH1 not included here
B22: L3.2H10 (Fab, V domains shown)
VH: B1 VH with G55L, D56G, E100K
VL: B1 VL with M37I, A55G, S95L
notes: as for B1
B23: L2.P4.B5 (Fab, V domains shown)
VH: B1 VH with L99Y
VL: B1 VL
notes: as for B1
B24: L3.1B12 (Fab, V domains shown)
VH: B1 VH with G55F, D56G
VL: B1 VL with M37I, A55G, S95L
notes: as for B1
B25: L3.4E10 (Fab, V domains shown)
VH: B1 VH with D56H, E100Q
VL: B1 VL with M37I, A55G, S95L
notes: as for B1
B26: 24 (Fab, V domains shown)
VH: B1 VH with W54G, D56R
VL: B1 VL
notes: positive control Fab of the screening assays; human kappa CL and IgG2 CH1 not included here; printed changes identical to L2.1E5; also called clone 24; Clone 24 Fab
B27: L3.4H2 (Fab, V domains shown)
VH: B1 VH with E100Q
VL: B1 VL with M37I, A55G, S95L
notes: tested as Fab (E. coli lysate, screening mode); human kappa CL and IgG2 CH1 not included here; printed changes identical to L3.4E7
B28: 2G9.33L (Fab, V domains shown)
VH: B1 VH with E100R
VL: B1 VL with M37I, A55G, S95L
notes: as for B1
B29: L2.1G8 (Fab, V domains shown)
VH: B1 VH with G55F
VL: B1 VL
notes: as for B1
B30: L3.1A3 (Fab, V domains shown)
VH: B1 VH with G55F, D56H, E100R
VL: B1 VL with M37I, A55G, S95L
notes: as for B1
B31: L2.4D11 (Fab, V domains shown)
VH: B1 VH with G55M
VL: B1 VL
notes: as for B1
B32: L2.4G10 (Fab, V domains shown)
VH: B1 VH with G55L, E100R
VL: B1 VL
notes: as for B1

Target: T1, Recombinant human Dkk-1 (R&D Systems …)
Experiment: theoretical: koff / estimated kon 1e6 1/Ms (SPR screening 37C)
Description: (§1) For screening assays to determine binding and dissociation rates of huMabJC18 variants to human Dkk1, either BIAcore or ProteOn XPR36 (BioRad, Inc.) systems were used. For the BIAcore assay, biotinylated-human Dkk1 was captured on SA (streptavidin) BIAcore chips according to the supplier's instructions. Biotinylated-human Dkk-1 protein was diluted into HBS-EP, and injected over the chip at a concentration of 5 μg/mL. Flow times across the individual chip channels were selected to achieve an antigen density of approximately 500-600 response units (RU). HBS-EP buffer was used as running buffer. Filtered recombinant E.coli cell lysates were injected at high temperature (37° C.) for 1 min at 30 ul/min, allowing a 1-5 min dissociation phase. Surfaces were regenerated with 8 mM NaOH+8% ethanol. A positive control Fab (clone 24) was injected twice at the start of the experiment, and again at the end of the assay to assess reproducibility.
For the ProteOn assay, biotinylated human Dkk-1 was injected for 1 min at serial fold dilutions empirically determined to yield different levels of immobilization (150-3000 RU) on five channels of a ProteOn NLC Neutravidin sensor chip. The sixth channel was left unmodified to serve as a reference surface. Recombinant Fabs in filtered E. coli lysates were injected at high temperature (37° C.) for 50 sec at 20 μl/min. Running buffer consisted of PBS+1 mg/ml BSA+0.005% Tween-20. The ProteOn is configured such that each injection flows over each of the five Dkk-1 channels as well as the reference channel, and six Fab samples can be injected simultaneously. Fab dissociation from the Dkk-1 surface was monitored for 20 min. The chip surface was regenerated with a 30-sec injection of 8% EtOH, 8 mM NaOH. Clone 24 Fab was used as control. Level of binding during association, and rate of dissociation for each clone was very consistent between different ligand channels. […]

Kd [nM]	Binder
4.42	B1
2.07	B2
2.74	B3
5.7	B4
8.74	B5
2.12	B6
11.8	B7
3.45	B8
0.99	B9
5.19	B10
0.808	B11
0.555	B12
1.15	B13
4.31	B14
0.148	B15
3.12	B16

Kd [nM]	Binder
2.78	B17
0.164	B18
9.14	B19
0.276	B20
0.09	B21
0.569	B22
5.32	B23
0.21	B24
0.533	B25
11.4	B26
0.048	B27
0.283	B28
2.55	B29
0.184	B30
3.26	B31
2.76	B32

Target: T1, Recombinant human Dkk-1 (R&D Systems …)
Experiment: SPR screening 37C (BIAcore/ProteOn), Fab lysate over biotinylated human Dkk-1
Description: as §1
For the ProteOn assay, biotinylated human Dkk-1 was injected for 1 min at serial fold dilutions empirically determined to yield different levels of immobilization (150-3000 RU) on five channels of a ProteOn NLC Neutravidin sensor chip. The sixth channel was left unmodified to serve as a reference surface. Recombinant Fabs in filtered E. coli lysates were injected at high temperature (37° C.) for 50 sec at 20 μl/min. Running buffer consisted of PBS+1 mg/ml BSA+0.005% Tween-20. The ProteOn is configured such that each injection flows over each of the five Dkk-1 channels as well as the reference channel, and six Fab samples can be injected simultaneously. Fab dissociation from the Dkk-1 surface was monitored for 20 min. The chip surface was regenerated with a 30-sec injection of 8% EtOH, 8 mM NaOH. Clone 24 Fab was used as control. Level of binding during association, and rate of dissociation for each clone was very consistent between different ligand channels.

koff [s⁻¹]	Binder
0.00442	B1
0.00207	B2
0.00274	B3
0.0057	B4
0.00874	B5
0.00212	B6
0.0118	B7
0.00345	B8
0.00099	B9
0.00519	B10
0.000808	B11
0.000555	B12
0.00115	B13
0.00431	B14
0.000148	B15
0.00312	B16

koff [s⁻¹]	Binder
0.00278	B17
0.000164	B18
0.00914	B19
0.000276	B20
8.99e-05	B21
0.000569	B22
0.00532	B23
0.00021	B24
0.000533	B25
0.0114	B26
4.8e-05	B27
0.000283	B28
0.00255	B29
0.00018	B30
0.00326	B31
0.00276	B32
